Results on 6 molecules are retold here after US20150164996A1 (Sanofi, published 2015).

Read-outs that look alike come from different tables or passages of the source. Square brackets hold non-standard residues; d marks the D form. Ends that are not written are not given here. Aib = CC(C)(N)C(=O)O Some results are limits rather than exact numbers.

What all share (assay): cell-based or functional assay
Assay [1] addresses human GLP-1 receptor (human) (UniProt P43220).
Assay [2] deals with human glucagon receptor (human) (UniProt P47871).
Assay [3] concerns the target T1, human GLP-1 receptor (human, UniProt P43220 24-463).
Target sequence in this assay (P43220 24-463): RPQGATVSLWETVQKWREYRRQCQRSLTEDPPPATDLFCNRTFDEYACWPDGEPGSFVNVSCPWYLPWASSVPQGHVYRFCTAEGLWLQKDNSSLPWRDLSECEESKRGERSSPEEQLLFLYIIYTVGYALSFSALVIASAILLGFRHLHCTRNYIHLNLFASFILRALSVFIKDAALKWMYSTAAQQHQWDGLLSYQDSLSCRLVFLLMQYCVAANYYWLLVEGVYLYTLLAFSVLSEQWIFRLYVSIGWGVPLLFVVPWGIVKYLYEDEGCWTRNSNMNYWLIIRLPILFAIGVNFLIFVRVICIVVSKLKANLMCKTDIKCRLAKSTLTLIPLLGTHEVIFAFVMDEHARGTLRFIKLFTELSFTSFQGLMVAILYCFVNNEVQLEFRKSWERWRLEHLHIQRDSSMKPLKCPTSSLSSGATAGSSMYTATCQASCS
The target of assay [4] is T2, human GIP receptor (human, UniProt P48546 22-466).
T2 sequence (looked up): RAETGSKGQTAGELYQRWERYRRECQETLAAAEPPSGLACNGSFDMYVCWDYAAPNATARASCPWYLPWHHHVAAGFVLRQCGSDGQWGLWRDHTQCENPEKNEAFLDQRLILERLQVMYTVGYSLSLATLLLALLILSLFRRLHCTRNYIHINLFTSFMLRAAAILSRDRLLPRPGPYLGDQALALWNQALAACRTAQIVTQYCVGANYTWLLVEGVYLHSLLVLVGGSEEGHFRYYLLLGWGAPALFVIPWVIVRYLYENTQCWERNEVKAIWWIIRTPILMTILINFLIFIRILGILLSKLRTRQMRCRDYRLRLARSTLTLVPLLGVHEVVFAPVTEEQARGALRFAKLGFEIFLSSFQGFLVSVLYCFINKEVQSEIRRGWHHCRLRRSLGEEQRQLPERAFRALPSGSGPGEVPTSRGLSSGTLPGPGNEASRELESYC

Assay [5] deals with T1, human GLP-1 receptor. The source holds these as a separate data set.
For assay [6], the target named is T2, human GIP receptor. The source holds these as a separate data set.
Another assay has as its target human glucagon receptor (human, UniProt P47871 26-477).

Chain of human glucagon receptor (P47871 26-477): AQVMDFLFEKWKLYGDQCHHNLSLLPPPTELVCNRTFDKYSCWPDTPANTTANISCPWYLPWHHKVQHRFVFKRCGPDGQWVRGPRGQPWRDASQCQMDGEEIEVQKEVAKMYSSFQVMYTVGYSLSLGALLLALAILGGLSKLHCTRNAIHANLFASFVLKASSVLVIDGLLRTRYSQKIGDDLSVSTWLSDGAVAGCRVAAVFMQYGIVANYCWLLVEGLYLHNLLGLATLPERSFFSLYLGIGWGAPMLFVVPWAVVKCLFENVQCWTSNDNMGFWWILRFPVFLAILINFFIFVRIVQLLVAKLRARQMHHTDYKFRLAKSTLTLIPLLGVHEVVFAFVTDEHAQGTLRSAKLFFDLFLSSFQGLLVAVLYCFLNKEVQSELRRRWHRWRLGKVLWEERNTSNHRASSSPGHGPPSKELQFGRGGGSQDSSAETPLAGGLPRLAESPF
Chain of human GLP-1 receptor (human) (P43220 24-463): as the sequence (P43220 24-463) above
Chain of human glucagon receptor (human) (P47871 26-477): as the sequence (P47871 26-477) above

In the case of exendin-4 (peptide), the EC50 hGLP-1 R [pM] (cAMP formation, HTRF, HEK-293 cells) in assay [1] amounted to 0.4 pM. In assay [2], the EC50 hGlucagon R [pM] (cAMP formation, HTRF, HEK-293 cells) is greater than 1e+07 pM.

B1: Tyr(1)Ile(12)-GLP1 (peptide)
peptide: YAEGTFTSDVSIYLEGQAAKEFIAWLVKGR
modifications: ends and bridges not checked
Regarding B1, the “EC50 hGLP-1 R [pM] (cAMP formation, HTRF, HEK-293 cells)” value (“EC50 hGLP-1 R [pM]” below) with human GLP-1 receptor [3] was 5 pM. In addition, the “EC50 hGIP R [pM] (cAMP formation, HTRF, HEK-293 cells)” value (“EC50 hGIP R [pM]” below) with human GIP receptor [4] stood at 3660 pM.

B2: SEQ ID NO: 11 (peptide)
peptide: Y[Aib]EGTFTSDLSILLEEEAVRLFIEWLKAGGPSSGAPPPS-NH2
modifications: N-terminus assumed
SMILES: CC[C@H](C)[C@H](NC(=O)[C@H](CO)NC(=O)[C@H](CC(C)C)NC(=O)[C@H](CC(=O)O)NC(=O)[C@H](CO)NC(=O)[C@@H](NC(=O)[C@H](Cc1ccccc1)NC(=O)[C@@H](NC(=O)CNC(=O)[C@H](CCC(=O)O)NC(=O)C(C)(C)NC(=O)[C@@H](N)Cc1ccc(O)cc1)[C@@H](C)O)[C@@H](C)O)C(=O)N[C@@H](CC(C)C)C(=O)N[C@@H](CC(C)C)C(=O)N[C@@H](CCC(=O)O)C(=O)N[C@@H](CCC(=O)O)C(=O)N[C@@H](CCC(=O)O)C(=O)N[C@@H](C)C(=O)N[C@H](C(=O)N[C@@H](CCCNC(=N)N)C(=O)N[C@@H](CC(C)C)C(=O)N[C@@H](Cc1ccccc1)C(=O)N[C@H](C(=O)N[C@@H](CCC(=O)O)C(=O)N[C@@H](Cc1c[nH]c2ccccc12)C(=O)N[C@@H](CC(C)C)C(=O)N[C@@H](CCCCN)C(=O)N[C@@H](C)C(=O)NCC(=O)NCC(=O)N1CCC[C@H]1C(=O)N[C@@H](CO)C(=O)N[C@@H](CO)C(=O)NCC(=O)N[C@@H](C)C(=O)N1CCC[C@H]1C(=O)N1CCC[C@H]1C(=O)N1CCC[C@H]1C(=O)N[C@@H](CO)C(N)=O)[C@@H](C)CC)C(C)C
Consider B2, for which the “EC50 hGLP-1 R [pM]” value with human GLP-1 receptor [5] came out at 1.4 pM. For the same molecule, in the assay with human GIP receptor [6], the “EC50 hGIP R [pM]” value was found to be 0.9 pM. Moreover, the “EC50 hGLUC R [pM] (cAMP formation, HTRF, HEK-293 cells)” value (from here on “EC50 hGLUC R [pM]”) with human glucagon receptor stood at 529000 pM.

B3: SEQ ID NO: 8 (peptide)
peptide: Y[Aib]EGTFTSDLSKLLEKEAVRLFIEWLKAGGPSSGAPPPS-NH2
modifications: N-terminus assumed
SMILES: CC[C@H](C)[C@H](NC(=O)[C@H](Cc1ccccc1)NC(=O)[C@H](CC(C)C)NC(=O)[C@H](CCCNC(=N)N)NC(=O)[C@@H](NC(=O)[C@H](C)NC(=O)[C@H](CCC(=O)O)NC(=O)[C@H](CCCCN)NC(=O)[C@H](CCC(=O)O)NC(=O)[C@H](CC(C)C)NC(=O)[C@H](CC(C)C)NC(=O)[C@H](CCCCN)NC(=O)[C@H](CO)NC(=O)[C@H](CC(C)C)NC(=O)[C@H](CC(=O)O)NC(=O)[C@H](CO)NC(=O)[C@@H](NC(=O)[C@H](Cc1ccccc1)NC(=O)[C@@H](NC(=O)CNC(=O)[C@H](CCC(=O)O)NC(=O)C(C)(C)NC(=O)[C@@H](N)Cc1ccc(O)cc1)[C@@H](C)O)[C@@H](C)O)C(C)C)C(=O)N[C@@H](CCC(=O)O)C(=O)N[C@@H](Cc1c[nH]c2ccccc12)C(=O)N[C@@H](CC(C)C)C(=O)N[C@@H](CCCCN)C(=O)N[C@@H](C)C(=O)NCC(=O)NCC(=O)N1CCC[C@H]1C(=O)N[C@@H](CO)C(=O)N[C@@H](CO)C(=O)NCC(=O)N[C@@H](C)C(=O)N1CCC[C@H]1C(=O)N1CCC[C@H]1C(=O)N1CCC[C@H]1C(=O)N[C@@H](CO)C(N)=O
Take B3: the “EC50 hGLP-1 R [pM]” value with human GLP-1 receptor [5] was found to be 1.2 pM. Moreover, in the assay with human GIP receptor [6], the “EC50 hGIP R [pM]” value stood at 2.3 pM. Further, in the assay with human glucagon receptor, the “EC50 hGLUC R [pM]” value turned out to be 79000 pM.

B4: SEQ ID NO: 9 (peptide)
peptide: Y[Aib]EGTFTSDLSKLLDKEAVRLFIEWLKAGGPSSGAPPPS-NH2
modifications: N-terminus assumed
SMILES: CC[C@H](C)[C@H](NC(=O)[C@H](Cc1ccccc1)NC(=O)[C@H](CC(C)C)NC(=O)[C@H](CCCNC(=N)N)NC(=O)[C@@H](NC(=O)[C@H](C)NC(=O)[C@H](CCC(=O)O)NC(=O)[C@H](CCCCN)NC(=O)[C@H](CC(=O)O)NC(=O)[C@H](CC(C)C)NC(=O)[C@H](CC(C)C)NC(=O)[C@H](CCCCN)NC(=O)[C@H](CO)NC(=O)[C@H](CC(C)C)NC(=O)[C@H](CC(=O)O)NC(=O)[C@H](CO)NC(=O)[C@@H](NC(=O)[C@H](Cc1ccccc1)NC(=O)[C@@H](NC(=O)CNC(=O)[C@H](CCC(=O)O)NC(=O)C(C)(C)NC(=O)[C@@H](N)Cc1ccc(O)cc1)[C@@H](C)O)[C@@H](C)O)C(C)C)C(=O)N[C@@H](CCC(=O)O)C(=O)N[C@@H](Cc1c[nH]c2ccccc12)C(=O)N[C@@H](CC(C)C)C(=O)N[C@@H](CCCCN)C(=O)N[C@@H](C)C(=O)NCC(=O)NCC(=O)N1CCC[C@H]1C(=O)N[C@@H](CO)C(=O)N[C@@H](CO)C(=O)NCC(=O)N[C@@H](C)C(=O)N1CCC[C@H]1C(=O)N1CCC[C@H]1C(=O)N1CCC[C@H]1C(=O)N[C@@H](CO)C(N)=O
As to B4, the “EC50 hGLP-1 R [pM]” value with human GLP-1 receptor [5] came to 2.2 pM. Further, the “EC50 hGIP R [pM]” value with human GIP receptor [6] is 13 pM. Besides, in the assay with human glucagon receptor, the “EC50 hGLUC R [pM]” value was found to be 149000 pM.

B5: SEQ ID NO: 10 (peptide)
peptide: Y[Aib]EGTFTSDLSKLLEEEAVRLFIEWLKAGGPSSGAPPPS-NH2
modifications: N-terminus assumed
SMILES: CC[C@H](C)[C@H](NC(=O)[C@H](Cc1ccccc1)NC(=O)[C@H](CC(C)C)NC(=O)[C@H](CCCNC(=N)N)NC(=O)[C@@H](NC(=O)[C@H](C)NC(=O)[C@H](CCC(=O)O)NC(=O)[C@H](CCC(=O)O)NC(=O)[C@H](CCC(=O)O)NC(=O)[C@H](CC(C)C)NC(=O)[C@H](CC(C)C)NC(=O)[C@H](CCCCN)NC(=O)[C@H](CO)NC(=O)[C@H](CC(C)C)NC(=O)[C@H](CC(=O)O)NC(=O)[C@H](CO)NC(=O)[C@@H](NC(=O)[C@H](Cc1ccccc1)NC(=O)[C@@H](NC(=O)CNC(=O)[C@H](CCC(=O)O)NC(=O)C(C)(C)NC(=O)[C@@H](N)Cc1ccc(O)cc1)[C@@H](C)O)[C@@H](C)O)C(C)C)C(=O)N[C@@H](CCC(=O)O)C(=O)N[C@@H](Cc1c[nH]c2ccccc12)C(=O)N[C@@H](CC(C)C)C(=O)N[C@@H](CCCCN)C(=O)N[C@@H](C)C(=O)NCC(=O)NCC(=O)N1CCC[C@H]1C(=O)N[C@@H](CO)C(=O)N[C@@H](CO)C(=O)NCC(=O)N[C@@H](C)C(=O)N1CCC[C@H]1C(=O)N1CCC[C@H]1C(=O)N1CCC[C@H]1C(=O)N[C@@H](CO)C(N)=O
As to B5, the “EC50 hGLP-1 R [pM]” value with human GLP-1 receptor [5] is 1 pM. In addition, the “EC50 hGIP R [pM]” value in the assay with human GIP receptor [6] stood at 1.3 pM. Also, the “EC50 hGLUC R [pM]” value with human glucagon receptor came to 137000 pM.
